This series concerns duckweed-produced human microplasminogen.

The text below walks through data of US20050262592.

Chain of duckweed-produced human microplasminogen (chain, as listed by the source): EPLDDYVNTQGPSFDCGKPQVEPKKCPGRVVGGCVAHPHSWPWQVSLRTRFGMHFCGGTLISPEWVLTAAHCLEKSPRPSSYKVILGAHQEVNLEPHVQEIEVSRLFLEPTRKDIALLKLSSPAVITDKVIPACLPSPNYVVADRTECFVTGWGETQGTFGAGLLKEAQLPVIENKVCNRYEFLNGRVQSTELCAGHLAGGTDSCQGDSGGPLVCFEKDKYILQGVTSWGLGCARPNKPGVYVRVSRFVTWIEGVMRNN

On to urokinase, for which the “Western blot: production of the B chain of plasmin” value is on record as “Western blot analysis confirmed the production of the B chain of plasmin following activation of duckweed-produced microplasminogen with either urokinase or tPA”.
